Assay [1] addresses T1, recombinant mouse Clec4F (CLEC4F/CLECSF13), soluble extracellular domain Ala65-Gly548 (Mus musculus, UniProt P70194).
T1 construct: Clec4F (C-type lectin domain family 4, member F), mouse, soluble extracellular domain Ala65-Gly548; the oligomeric state of the bought protein was not measured here; also called mClec4F; mouse Kupffer cell receptor Clec4F; source: bought: R&D Systems (NS0-derived, mouse myeloma cell line)
The assay is described as follows: SPR; epitope binning: Clec4F immobilised on the chip; 1st nanobody injected (50 nM) to saturation, then a mix of 1st and 2nd nanobody; extra RU read. The settings on record: both partners purified. A general note: SPR reads the build-up and loss of mass on a sensor chip optically.

Assay [2] has as its target T1, recombinant mouse Clec4F …. The assay is described as follows: SPR; Biacore T200; 400 RU of recombinant mouse Clec4F coupled to a CM5 chip; nanobodies flown at 30 ul/min at 1-400 nM; 1:1 binding model. The settings on record: both partners purified.
Assay [3] deals with Nb3.60 (alpaca (Vicugna pacos)). The assay can be described thus: SDS-PAGE; 10% SDS-PAGE with Coomassie staining of the nanobody preparations after IMAC and dialysis.

B1: Nb6.39 (VHH)
VHH: QVQLVESGGGLVQPGGSLRLSCAASGFTFSTYAMRWVRQAPGKGLEWVSDINQGGGVTSYRDSVLGRFTISRDDAKNTLYLQMNSLKREDTAVYYCTNGRSRGQGTQVTVSS
notes: also called R3-39; group G6; source: E. coli WK6 periplasm, purified (IMAC Ni-NTA, dialysis)
B1: the binding result in assay [1] was “binds”.

B2: Nb3.60 (VHH)
VHH: QVQLVESGGGLVQPGGSLRLSCVASGTIFSMYGVYWYRQAPGNQREVVAWISSSGNTNYVNAVKGRFTISRDNAKNTTWLQMHSLKPEDAAVYYCRLGMNYWGKGTQVTVSS
notes: The preparation held dimers beside monomers (SDS-PAGE); also called R2-60; group G3; source: E. coli WK6 periplasm, purified (IMAC Ni-NTA, dialysis)
Regarding B2, in assay [2], the equilibrium dissociation constant (Kd) turned out to be 618 pM, the koff came to 0.00475 s⁻¹ and the on-rate constant (kon) came to 7.69e+06 M⁻¹ s⁻¹. This molecule returned a stoichiometry N in assay [3] of 2.

What is called Kd is the concentration at which binding is half-saturated. What is called koff is the first-order rate constant of dissociation. By kon is commonly meant the rate constant with which the complex forms. By stoichiometry N is commonly meant a count of units in the complex or per binding partner.

Source of the values: publication PMC7937711, “Development and Characterization of Nanobodies Targeting the Kupffer Cell” (Frontiers in Immunology, 2021).
